Experimental data: patent US6468532 (Genentech, dated 2002)
Positions count from the first letter of the chain named.

T1: rhesus IL-8 (rhesus, UniProt P67813 23-101, limits assumed)
T1 sequence (looked up): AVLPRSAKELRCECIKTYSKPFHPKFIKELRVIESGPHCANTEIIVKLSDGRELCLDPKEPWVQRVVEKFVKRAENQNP

T2: recombinant human IL-8, (ser-IL-8)72 (human, UniProt P10145 28-99)
T2 sequence (looked up): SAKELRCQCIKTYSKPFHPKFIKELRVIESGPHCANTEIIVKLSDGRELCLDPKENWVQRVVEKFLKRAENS

T3: rabbit IL-8 (rabbit, UniProt P19874 23-101, limits assumed)
T3 sequence (looked up): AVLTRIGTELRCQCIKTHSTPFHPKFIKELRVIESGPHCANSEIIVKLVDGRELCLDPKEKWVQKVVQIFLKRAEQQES

B1: humanized 6G425 F(ab)-9 (humanized 6G4V11 Fab) (Fab, V domains shown)
VH: EVQLVQSGGGLVQPGGSLRLSCAASGYSFSSHYMHWVRQAPGKGLEWVGYIDPSNGETTYNQKFKGRFTLSRDNSKNTAYLQMNSLRAEDTAVYYCARGDYRYNGDWFFDVWGQGTLVTVSS
VL: DIQMTQSPSSLSASVGDRVTITCRSSQSLVHGIGNTYLHWYQQKPGKAPKLLIYKVSNRFSGVPSRFSGSGSGTDFTLTISSLQPEDFATYYCSQSTHVPLTFGQGTKVEIKR
B2: 6G4V11N35A Fab' modified with 40 kD linear PEG-maleimide (Fab, V domains shown)
VH: B1 VH
VL: B1 VL with N35A
modifications: 40 kD linear methoxy-PEG-maleimide on the free cysteine in the hinge region
B3: humanized 6G425 F(ab)-8 (Fab, V domains shown)
VH: B1 VH with Q6E, R38K
VL: B1 VL
B4: full length 6G4V11N35A IgG1 (antibody, V domains shown, not shown: a dimerising Fc or GST)
VH: B1 VH
VL: B1 VL with N35A
B5: 6G4V11N35A Fab (Fab, V domains shown)
VH: B1 VH
VL: B1 VL with N35A
B6: 6G4V11N35A F(ab')2 (GCN4 leucine zipper construct) (other)
light: DIQMTQSPSSLSASVGDRVTITCRSSQSLVHGIGATYLHWYQQKPGKAPKLLIYKVSNRFSGVPSRFSGSGSGTDFTLTISSLQPEDFATYYCSQSTHVPLTFGQGTKVEIKRTVAAPSVFIFPPSDEQLKSGTASVVCLLNNFYPREAKVQWKVDNALQSGNSQESVTEQDSKDSTYSLSSTLTLSKADYEKHKVYACEVTHQGLSSPVTKSFNRGEC
heavy: not shown

Key:
Assay in all cases: cell-based or functional assay
rhesus IL-8 = target: T1, rhesus IL-8
human monomeric IL-8 = human monomeric IL-8 (human)
[1] = target: T2, recombinant human IL-8, (ser-IL-8)72
rabbit IL-8 = target: T3, rabbit IL-8

| Binder | IC50, IL-8 mediated neutrophil chemotaxis (rhesus IL-8) [nM] | IC50, IL-8 mediated PMN chemotaxis [1] [nM] | average IC50, IL-8 mediated neutrophil chemotaxis (human monomeric IL-8) [nM] | average IC50, IL-8 mediated neutrophil chemotaxis (rabbit IL-8) [nM] | average IC50, human IL-8 mediated neutrophil chemotaxis [1] [nM] | also measured |
| --- | --- | --- | --- | --- | --- | --- |
| B1 | ~22 |  |  |  |  | IC50, IL-8 mediated neutrophil chemotaxis (human monomeric IL-8): ~15 nM |
| B2 |  | 3.7 |  |  |  |  |
| B3 | 10 |  |  |  |  | IC50, IL-8 mediated neutrophil chemotaxis [1]: 12 nM |
| B4 |  |  |  |  |  | IC50, IL-8 mediated human neutrophil chemotaxis (rabbit IL-8): 4 nM; IC50, IL-8 mediated human neutrophil chemotaxis [1]: 4 nM |
| B5 |  | 0.8 | 1 | 5 | 2.7 |  |
| B6 |  |  | 1 | 4 | 1.5 |  |
